Data published in patent publication US8846873B2, “Antibodies directed to GPNMB and uses thereof” (Celldex Therapeutics, Inc., priority 2004, dated 2014).

Columns and labels:
[1] = tested on: lymphoma or leukemia cell lines; experiment: Clonogenic assay with 1.15.1-AE (methylcellulose); assay type: cell-based; details: various concentrations
Description: Lymphoma or leukemia cell lines were mixed with methylcellulose base media (R&D Systems, USA) and in various concentrations of unconjugated and Auristatin E-conjugated 1.15.1 antibody before plating onto 6-well tissue culture plates (Becton Dickinson, Franklin Lakes, N.J., USA). […] Plates were incubated at 37° C. and examined daily. On days 14-18, colonies on the plates were counted.

[2] = target: T1, GPNMB (Homo sapiens, UniProt Q14956); experiment: ELISA of hybridoma supernatants for binding to GPNMB
T1 construct: made in house; host or cells: HEK 293
T1 sequence (Q14956 23-492): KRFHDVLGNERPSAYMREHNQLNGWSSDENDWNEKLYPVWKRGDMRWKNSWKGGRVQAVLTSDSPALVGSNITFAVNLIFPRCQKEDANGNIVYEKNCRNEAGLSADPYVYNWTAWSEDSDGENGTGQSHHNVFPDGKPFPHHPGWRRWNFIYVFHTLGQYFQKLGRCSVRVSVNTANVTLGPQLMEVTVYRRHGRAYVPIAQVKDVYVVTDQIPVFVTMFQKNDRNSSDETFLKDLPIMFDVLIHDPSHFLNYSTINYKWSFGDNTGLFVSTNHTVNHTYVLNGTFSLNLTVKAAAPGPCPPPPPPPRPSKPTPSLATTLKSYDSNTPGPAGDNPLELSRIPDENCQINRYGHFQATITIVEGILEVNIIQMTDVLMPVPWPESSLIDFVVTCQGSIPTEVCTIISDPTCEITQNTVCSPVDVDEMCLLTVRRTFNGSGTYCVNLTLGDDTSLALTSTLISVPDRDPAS
Description: After 14 days of culture, hybridoma supernatants were screened for GPNMB specific monoclonal antibodies. In the Primary screen, the ELISA plates (Fisher, Cat. No. 12-565-136) were coated with 50 μL/well of GPNMB (1 μg/mL) in Coating Buffer (0.1 M Carbonate Buffer, pH 9.6, NaHCO3 8.4 g/L), then incubated at 4° C. overnight. After incubation, the plates were washed with Washing Buffer (0.05% Tween 20 in PBS) three times. 200 μL/well Blocking Buffer (0.5% BSA, 0.1% Tween 20, 0.01% Thimerosal in 1×PBS) were added and the plates were incubated at room temperature for 1 h. After incubation, the plates were washed with Washing Buffer three times. Aliquots (50 μL/well) of hybridoma supernatants and positive and negative controls were added, and the plates were incubated at room temperature for 2 h. The positive control used throughout was serum from the relevant GPNMB immunized XenoMouse® mouse and the negative control was serum from the KLH-immunized relevant strain of XenoMouse® mouse. After incubation, the plates were washed three times with Washing Buffer. 100 μL/well of detection antibody goat anti-huIgGfc-HRP (Caltag, Cat. No. H10507, using concentration was 1:2000 dilution) was added and the plates were incubated at room temperature for 1 hour. After incubation, the plates were washed three times with Washing Buffer. 100 μl/well of TMB (BioFX Lab. Cat. No. TMSK-0100-01) was added, and the plates were allowed to develop for about 10 minutes (until negative control wells barely started to show color). 50 μl/well stop solution (TMB Stop Solution (BioFX Lab. Cat. No. STPR-0100-01) was then added and the plates were read on an ELISA plate reader at a wavelength of 450 nm.
Hybridoma supernatants were screened for binding to GPNMB by ELISA as described above in Example 2.

[3] = tested on: XF-498; experiment: Flow cytometry (FACS) of CR011 surface staining; assay type: binding, human
Description: (§1) Flow Cytometry: Quantitative analysis of CG56972 expression on the surface of cell lines was determined by flow cytometry (FACS). […] Cells were fixed in 1% paraformaldehyde/PBS and examined on a Becton Dickinson FACSCalibur flow cytometer. Data analysis was performed with Becton Dickinson Cell Quest software version 3.3 and the geometric mean fluorescence intensity ratio (GMR) was determined for each cell type.

[4] = tested on: SF-539; experiment: Flow cytometry (FACS) of CR011 surface staining; assay type: binding, human
Description: as §1

[5] = tested on: SF-268; experiment: Flow cytometry (FACS) of CR011 surface staining; assay type: binding, human
Description: as §1

[6] = tested on: U-118-MG; experiment: Flow cytometry (FACS) of CR011 surface staining; assay type: binding, human
Description: as §1

[7] = tested on: SNB-78; experiment: Flow cytometry (FACS) of CR011 surface staining; assay type: binding, human
Description: as §1

[8] = tested on: SK-Mel-2 cells; experiment: Apoptosis analysis (Annexin V-FITC / propidium iodide); assay type: cell-based, human; details: SK-Mel-2, 48 hour, 1000 ng/mL
Description: (§2) Briefly, cells were pulsed at the indicated times with 30 μM of bromodeoxyuridine (BrdU, Sigma) for 30 min, harvested, fixed and permeabilized in methanol. Nascent DNA synthesis was detected by anti-bromodeoxyuridine-FITC (BD Biosciences, San Jose, Calif.) staining. Total DNA content was detected using propidium iodide (PI, Sigma). For apoptosis analysis, cells were treated as above and labeled with Annexin V-FITC followed by propidium iodide exclusion using the Annexin V-FITC Apoptosis Detection kit I (BD PharMingen, San Diego, Calif.) according to the manufacturer's protocols. Flow cytometry (as described in the previous Example) was used to assay both cell cycle and apoptosis studies.
(§3) To investigate this possibility, analysis of apoptosis using Annexin-V surface binding and loss of propidium iodide (PI) exclusion was performed.

[9] = tested on: TK-10 cells; experiment: as above; assay type: cell-based, human; details: TK-10, 48 hour, 1000 ng/mL
Description: as §2, §3

B1: Mab1.15.1 (protein, listed as Homo sapiens)
chain: QVQLQESGPGLVKPSQTLSLTCTVSGGSISSFNYYWSWIRHHPGKGLEWIGYIYYSGSTYSNPSLKSRVTISVDTSKNQFSLTLSSVTAADTAVYYCARGYNWNYFDYWGQGTLVTVSSA
[1]
  effect on growth of all antigen positive hematopoietic cell lines: no effect on growth
[2]; 12.3 ng/mL
  Avg OD: 0.168
[2]; 37 ng/mL
  Avg OD: 0.381
[2]; 111 ng/mL
  Avg OD: 0.701
[2]; 333 ng/mL
  Avg OD: 0.902
[2]; 1 μg/mL
  Avg OD: 1.051
[2]; 3 μg/mL
  Avg OD: 1.159
[3]
  surface staining above isotype control mAb background: at least 1.5 fold
[4]
  surface staining above isotype control mAb background: at least 1.5 fold
[5]
  surface staining above control mAb background: around 1.5 fold
[6]
  surface staining above isotype control mAb background: at least 1.5 fold
[7]
  surface staining above isotype control mAb background: at least 1.5 fold
[8]
  % AnnV+/PI+ UR: 0.45%
  % AnnV+/PI− LR: 4.74%
  % AnnV−/PI+ UL: 0.36%
[9]
  % AnnV+/PI+ UR: 0.34%
  % AnnV+/PI− LR: 0.55%
  % AnnV−/PI+ UL: 0.83%
